The results in this text go back to article PMC4287497, “Phosphorylation of Elp1 by Hrr25 Is Required for Elongator-Dependent tRNA Modification in Yeast” (PLoS Genetics, 2015).

Assay [1] has as its target Kti12 (UniProt P34253). The assay is described as follows: Elp2-myc IP of Elongator, anti-HA blot for Kti12. As to conditions: reference: wild type Elp1; sites S1209.
Assay [2] concerns the target Kti12 (UniProt P34253). The experiment in a line: GFP-trap IP of Elp1-GFP, anti-HA blot, densitometry. As to conditions: reference: wild type Elp1-GFP; sites S1209.
Another assay concerns the target T1, Elp1-S1209A-GFP (S. cerevisiae, UniProt Q06706 1-1349, S1209A).
T1 construct: Elp1 (Iki3), S. cerevisiae; also called mutant Elp1-GFP fusion; source: S. cerevisiae, expressed from its genomic locus, in cell extract
T1 sequence (looked up): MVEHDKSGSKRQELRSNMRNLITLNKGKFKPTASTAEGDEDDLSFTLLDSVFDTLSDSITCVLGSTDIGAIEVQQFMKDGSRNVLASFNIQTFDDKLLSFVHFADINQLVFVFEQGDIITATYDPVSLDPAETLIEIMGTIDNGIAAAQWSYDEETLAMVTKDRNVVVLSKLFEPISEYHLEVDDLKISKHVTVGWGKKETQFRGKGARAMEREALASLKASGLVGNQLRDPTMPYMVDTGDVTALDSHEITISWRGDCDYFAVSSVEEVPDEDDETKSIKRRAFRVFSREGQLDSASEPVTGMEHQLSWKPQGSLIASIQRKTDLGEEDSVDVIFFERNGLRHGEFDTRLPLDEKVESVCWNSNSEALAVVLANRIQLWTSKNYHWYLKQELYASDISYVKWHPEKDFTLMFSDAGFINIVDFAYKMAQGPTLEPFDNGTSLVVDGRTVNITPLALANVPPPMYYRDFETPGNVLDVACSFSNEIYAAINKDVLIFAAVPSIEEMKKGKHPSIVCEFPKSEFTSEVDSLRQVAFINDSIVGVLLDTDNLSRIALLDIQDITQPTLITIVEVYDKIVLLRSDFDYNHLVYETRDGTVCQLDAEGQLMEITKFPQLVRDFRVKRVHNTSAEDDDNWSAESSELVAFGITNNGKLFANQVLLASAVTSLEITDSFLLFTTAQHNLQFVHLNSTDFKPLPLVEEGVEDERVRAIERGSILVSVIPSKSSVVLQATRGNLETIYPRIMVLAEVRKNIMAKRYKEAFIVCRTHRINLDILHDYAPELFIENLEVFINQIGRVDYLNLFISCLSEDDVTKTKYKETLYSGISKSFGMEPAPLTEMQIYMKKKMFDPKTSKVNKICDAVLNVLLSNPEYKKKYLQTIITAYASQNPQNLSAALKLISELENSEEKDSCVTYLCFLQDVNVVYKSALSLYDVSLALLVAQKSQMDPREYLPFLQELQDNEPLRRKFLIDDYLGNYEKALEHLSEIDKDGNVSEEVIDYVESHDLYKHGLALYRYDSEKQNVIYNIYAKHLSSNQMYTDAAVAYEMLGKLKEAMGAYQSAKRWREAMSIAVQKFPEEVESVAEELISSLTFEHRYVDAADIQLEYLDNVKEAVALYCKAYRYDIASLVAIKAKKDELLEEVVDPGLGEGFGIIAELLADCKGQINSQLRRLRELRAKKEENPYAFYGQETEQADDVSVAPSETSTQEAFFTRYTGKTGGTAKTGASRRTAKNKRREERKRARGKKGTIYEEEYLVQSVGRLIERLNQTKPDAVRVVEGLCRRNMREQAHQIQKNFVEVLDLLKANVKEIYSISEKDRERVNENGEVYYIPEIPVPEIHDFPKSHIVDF
The experiment in a line: co-IP; GFP-tagged Elp1 (genomic locus) precipitated with GFP-trap from yeast extracts; Western blot with anti-GFP and anti-HA; densitometry of Kti12-HA normalised to Elp1-GFP, wild type set to 1.0. As to conditions: partners not purified.

With “Elp1 (Iki3) (from UniProt Q06706) S1209A”, in the assay with Kti12 [1], the “binding against the reference” value is listed as “stronger”.

On to “Elp1 (Iki3) (from UniProt Q06706) S1209A Elp1-GFP”, for which the fold change result with Kti12 [2] is recorded as “stronger; reference 1.0”.

B1: Kti12-HA6 (natural protein, S. cerevisiae, UniProt P34253 1-313, looked up)
chain: MPLVLFTGYPCSGKTTLAKHLVQLLQSKIDATPSLSKYSITYHSDESLGIKHSDYITSQDERKLRSEIISAVKRDLSKNKIVIVDSLNYIKGFRYQLHCEVKNLSTTFCVIQTLCPPETIFEWNKTSNPNPWEPELLNQLIQRYEEPNSSNRWDSPLFAILTPQDNITDYIDDICKVVFQTSKSAKNSGHNDPLSKGLQKPNSATVLKPASQSNFIQVLDIETSKIIKTIMNHIKSLTSIGGVSNGTRVIVSEGITDINDDGCFFVDLPIGNVVTLAQLQRLKRQFINFNKLRDIDQDRIGPLFADYLNKNLN
notes: Kti12, accessory protein of Elongator, S. cerevisiae; also called HA-tagged Kti12; source: S. cerevisiae KTI12-HA6 strains, in cell extract
As to B1, in the assay with Elp1-S1209A-GFP, the “Kti12 co-precipitated, fold of wild-type Elp1” value was ~2 fold of wild-type Elp1.
